We go through 125 sequences from the supplement of paper PMC9112550, “Optimization of the antimicrobial peptide Bac7 by deep mutational scanning” (BMC Biology, 2022).

For the series, the system named is Escherichia coli TOP10. Put plainly: shrunken log2 fold change of peptide-encoding DNA abundance (4.5 h post-induction vs induction); higher = less antimicrobial activity (less host growth inhibition). The following applies: time post-induction: 4.5 h; library: site-saturation at positions 5, 18, 19, 20.
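Note: peptides expressed intracellularly from a pBAD plasmid library in pooled LB shake-flask culture, induced with 0.3% L-arabinose, DNA abundance read by NGS, three biological replicates, DESeq2 with apeglm shrinkage.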

In the case of RRIRVRPPRLPRPRPRPDMAPRP, the “shrunken log2 fold change” value stood at 0.00912.

Take RRIRQRPPRLPRPRPRPMCDPRP: the “shrunken log2 fold change” value stood at 0.00628.

With RRIRKRPPRLPRPRPRPYAMPRP, the “shrunken log2 fold change” value stood at 0.202.

On to RRIRIRPPRLPRPRPRPLMVPRP, for which the “shrunken log2 fold change” value is -0.942.

As to RRIRDRPPRLPRPRPRPRTCPRP, the “shrunken log2 fold change” value was -0.0386.

In the case of RRIRMRPPRLPRPRPRPCKAPRP, the “shrunken log2 fold change” value is 0.173.

As for RRIRCRPPRLPRPRPRPNHMPRP, the “shrunken log2 fold change” value is -0.255.

Turning to RRIRNRPPRLPRPRPRPSQEPRP, the “shrunken log2 fold change” value came to 0.299.

Take RRIRPRPPRLPRPRPRPWRIPRP: the “shrunken log2 fold change” value is -0.0585.

Turning to RRIRIRPPRLPRPRPRPWVGPRP, the “shrunken log2 fold change” value is -0.248.

With RRIRSRPPRLPRPRPRPDDKPRP, the “shrunken log2 fold change” value was determined as 0.132.

On to RRIRMRPPRLPRPRPRPHEVPRP, for which the “shrunken log2 fold change” value stood at 0.16.

RRIRARPPRLPRPRPRPDAWPRP: the “shrunken log2 fold change” value was 1.05.

With RRIRKRPPRLPRPRPRPFMGPRP, the “shrunken log2 fold change” value is 0.00448.

For the sequence RRIRVRPPRLPRPRPRPDMIPRP, the “shrunken log2 fold change” value was -0.0118.

Take RRIRHRPPRLPRPRPRPHYIPRP: the “shrunken log2 fold change” value was -0.35.

In the case of RRIRFRPPRLPRPRPRPCSMPRP, the “shrunken log2 fold change” value is -0.343.

As to RRIRWRPPRLPRPRPRPEIKPRP, the “shrunken log2 fold change” value is -0.0674.

Regarding RRIRMRPPRLPRPRPRPPDMPRP, the “shrunken log2 fold change” value is 1.06.

Regarding RRIRTRPPRLPRPRPRPDDVPRP, the “shrunken log2 fold change” value is -0.102.

For the sequence RRIRQRPPRLPRPRPRPVYVPRP, the “shrunken log2 fold change” value was -0.216.

Regarding RRIRNRPPRLPRPRPRPLHWPRP, the “shrunken log2 fold change” value was -0.273.

As for RRIRLRPPRLPRPRPRPVSMPRP, the “shrunken log2 fold change” value was -0.302.

Consider RRIRTRPPRLPRPRPRPMWWPRP, for which the “shrunken log2 fold change” value is -0.0168.

Regarding RRIRFRPPRLPRPRPRPRHIPRP, the “shrunken log2 fold change” value is -0.439.

For RRIRYRPPRLPRPRPRPYVSPRP, the “shrunken log2 fold change” value is -0.0075.

On to RRIRARPPRLPRPRPRPWVPPRP, for which the “shrunken log2 fold change” value was -0.146.

Turning to RRIRNRPPRLPRPRPRPLAPPRP, the “shrunken log2 fold change” value amounted to 0.262.

As to RRIRFRPPRLPRPRPRPVDCPRP, the “shrunken log2 fold change” value is -0.0595.

On to RRIRSRPPRLPRPRPRPVFAPRP, for which the “shrunken log2 fold change” value is 0.218.

On to RRIRQRPPRLPRPRPRPGRVPRP, for which the “shrunken log2 fold change” value amounted to 0.422.

In the case of RRIRDRPPRLPRPRPRPFDHPRP, the “shrunken log2 fold change” value was 0.0299.

Take RRIRYRPPRLPRPRPRPNQQPRP: the “shrunken log2 fold change” value was -0.0105.

In the case of RRIRARPPRLPRPRPRPSVYPRP, the “shrunken log2 fold change” value was -0.138.

For RRIRIRPPRLPRPRPRPLYNPRP, the “shrunken log2 fold change” value was -0.522.

Turning to RRIRARPPRLPRPRPRPVGDPRP, the “shrunken log2 fold change” value came to 0.515.

Consider RRIRSRPPRLPRPRPRPINKPRP, for which the “shrunken log2 fold change” value was -0.641.

Turning to RRIRCRPPRLPRPRPRPDENPRP, the “shrunken log2 fold change” value is -0.0357.

Take RRIRPRPPRLPRPRPRPLIDPRP: the “shrunken log2 fold change” value is -0.0112.

On to RRIRNRPPRLPRPRPRPQDYPRP, for which the “shrunken log2 fold change” value was 0.087.

Consider RRIRKRPPRLPRPRPRPAKFPRP, for which the “shrunken log2 fold change” value was 0.602.

In the case of RRIRIRPPRLPRPRPRPHFDPRP, the “shrunken log2 fold change” value is -0.149.

RRIRGRPPRLPRPRPRPIEHPRP: the “shrunken log2 fold change” value is 0.125.

Turning to RRIRKRPPRLPRPRPRPPGFPRP, the “shrunken log2 fold change” value was determined as 0.55.

On to RRIRGRPPRLPRPRPRPMRPPRP, for which the “shrunken log2 fold change” value amounted to 1.3.

With RRIRWRPPRLPRPRPRPQRWPRP, the “shrunken log2 fold change” value stood at 0.308.

As to RRIRVRPPRLPRPRPRPMPKPRP, the “shrunken log2 fold change” value was 0.0271.

Consider RRIRWRPPRLPRPRPRPLMNPRP, for which the “shrunken log2 fold change” value was -0.0906.

For RRIRMRPPRLPRPRPRPGNPPRP, the “shrunken log2 fold change” value turned out to be 0.639.

For RRIRHRPPRLPRPRPRPMMMPRP, the “shrunken log2 fold change” value is -0.0507.

In the case of RRIRPRPPRLPRPRPRPDWEPRP, the “shrunken log2 fold change” value stood at 0.19.

In the case of RRIRGRPPRLPRPRPRPPCSPRP, the “shrunken log2 fold change” value stood at 0.238.

As to RRIRWRPPRLPRPRPRPNTMPRP, the “shrunken log2 fold change” value was -0.301.

As for RRIRMRPPRLPRPRPRPTCPPRP, the “shrunken log2 fold change” value turned out to be 0.128.

Consider RRIRRRPPRLPRPRPRPDMAPRP, for which the “shrunken log2 fold change” value was found to be 0.373.

Consider RRIRSRPPRLPRPRPRPWTMPRP, for which the “shrunken log2 fold change” value was determined as 0.0795.

Take RRIRARPPRLPRPRPRPICSPRP: the “shrunken log2 fold change” value turned out to be 0.251.

For the sequence RRIRFRPPRLPRPRPRPRWFPRP, the “shrunken log2 fold change” value was -0.111.

As for RRIRPRPPRLPRPRPRPIWMPRP, the “shrunken log2 fold change” value turned out to be 0.0829.

Turning to RRIRTRPPRLPRPRPRPFLMPRP, the “shrunken log2 fold change” value was -0.378.

RRIRVRPPRLPRPRPRPNNYPRP: the “shrunken log2 fold change” value was -0.726.

As to RRIRMRPPRLPRPRPRPHDMPRP, the “shrunken log2 fold change” value worked out at 0.0059.

For the sequence RRIRERPPRLPRPRPRPKNAPRP, the “shrunken log2 fold change” value is -0.352.

As to RRIRSRPPRLPRPRPRPGLIPRP, the “shrunken log2 fold change” value came to 0.142.

Regarding RRIRGRPPRLPRPRPRPPMAPRP, the “shrunken log2 fold change” value was 0.94.

As for RRIRIRPPRLPRPRPRPIRNPRP, the “shrunken log2 fold change” value was -0.236.

Consider RRIRQRPPRLPRPRPRPWQAPRP, for which the “shrunken log2 fold change” value came out at 0.124.

RRIRKRPPRLPRPRPRPCQPPRP: the “shrunken log2 fold change” value was determined as 0.227.

In the case of RRIRIRPPRLPRPRPRPACAPRP, the “shrunken log2 fold change” value is -0.149.

RRIRKRPPRLPRPRPRPNPIPRP: the “shrunken log2 fold change” value was 0.0804.

Regarding RRIRLRPPRLPRPRPRPKCQPRP, the “shrunken log2 fold change” value was -0.319.

Consider RRIRNRPPRLPRPRPRPKIQPRP, for which the “shrunken log2 fold change” value is -0.367.

As for RRIRFRPPRLPRPRPRPYYCPRP, the “shrunken log2 fold change” value was -0.74.

Regarding RRIRARPPRLPRPRPRPTAPPRP, the “shrunken log2 fold change” value stood at 0.8.

Consider RRIRPRPPRLPRPRPRPLVHPRP, for which the “shrunken log2 fold change” value is -0.00919.

With RRIRKRPPRLPRPRPRPQAFPRP, the “shrunken log2 fold change” value was -0.0237.

As to RRIRTRPPRLPRPRPRPKSWPRP, the “shrunken log2 fold change” value is 0.245.

For RRIRERPPRLPRPRPRPMSAPRP, the “shrunken log2 fold change” value was determined as 0.00792.

Turning to RRIRARPPRLPRPRPRPCKKPRP, the “shrunken log2 fold change” value is -0.0968.

Turning to RRIRARPPRLPRPRPRPVDAPRP, the “shrunken log2 fold change” value turned out to be 1.28.

For the sequence RRIRWRPPRLPRPRPRPDYLPRP, the “shrunken log2 fold change” value is -0.0223.

For RRIRYRPPRLPRPRPRPGHVPRP, the “shrunken log2 fold change” value is -0.59.

Take RRIRRRPPRLPRPRPRPAMCPRP: the “shrunken log2 fold change” value came out at 0.319.

As to RRIRDRPPRLPRPRPRPLCVPRP, the “shrunken log2 fold change” value worked out at 0.248.

Take RRIRCRPPRLPRPRPRPTRKPRP: the “shrunken log2 fold change” value is -0.0442.

Consider RRIRRRPPRLPRPRPRPTLEPRP, for which the “shrunken log2 fold change” value was 0.607.

Regarding RRIRLRPPRLPRPRPRPHCMPRP, the “shrunken log2 fold change” value was -0.283.

Take RRIRGRPPRLPRPRPRPTTGPRP: the “shrunken log2 fold change” value turned out to be 0.418.

Turning to RRIRERPPRLPRPRPRPRYMPRP, the “shrunken log2 fold change” value was -0.785.

In the case of RRIRKRPPRLPRPRPRPCEPPRP, the “shrunken log2 fold change” value came to 0.553.

Turning to RRIRQRPPRLPRPRPRPSRMPRP, the “shrunken log2 fold change” value is -0.34.

Consider RRIRMRPPRLPRPRPRPCYDPRP, for which the “shrunken log2 fold change” value is 0.0509.

As to RRIRHRPPRLPRPRPRPLEKPRP, the “shrunken log2 fold change” value is -0.1.

As to RRIRWRPPRLPRPRPRPCWGPRP, the “shrunken log2 fold change” value was -0.122.

Turning to RRIRIRPPRLPRPRPRPFDGPRP, the “shrunken log2 fold change” value is -0.262.

For the sequence RRIRNRPPRLPRPRPRPIYIPRP, the “shrunken log2 fold change” value came out at 0.0152.

For the sequence RRIRDRPPRLPRPRPRPIAWPRP, the “shrunken log2 fold change” value came to 0.0633.

Take RRIRRRPPRLPRPRPRPKNFPRP: the “shrunken log2 fold change” value is 0.151.

Regarding RRIRIRPPRLPRPRPRPHQTPRP, the “shrunken log2 fold change” value is 0.0701.

As for RRIRHRPPRLPRPRPRPKDKPRP, the “shrunken log2 fold change” value is -0.23.

Regarding RRIRIRPPRLPRPRPRPEQKPRP, the “shrunken log2 fold change” value worked out at 2.45.

For RRIRLRPPRLPRPRPRPNDMPRP, the “shrunken log2 fold change” value was -0.258.

Turning to RRIRWRPPRLPRPRPRPIHWPRP, the “shrunken log2 fold change” value came out at 0.202.

As to RRIRCRPPRLPRPRPRPAVIPRP, the “shrunken log2 fold change” value was -0.383.

RRIRPRPPRLPRPRPRPAIRPRP: the “shrunken log2 fold change” value turned out to be 0.0298.

With RRIRYRPPRLPRPRPRPFTWPRP, the “shrunken log2 fold change” value was -1.51.

For RRIRLRPPRLPRPRPRPEWHPRP, the “shrunken log2 fold change” value stood at 0.222.

For RRIRCRPPRLPRPRPRPEQLPRP, the “shrunken log2 fold change” value is 0.407.

Regarding RRIRIRPPRLPRPRPRPEYHPRP, the “shrunken log2 fold change” value was -0.152.

As to RRIRLRPPRLPRPRPRPFCSPRP, the “shrunken log2 fold change” value is 1.91.

Turning to RRIRIRPPRLPRPRPRPMARPRP, the “shrunken log2 fold change” value is -0.153.

Turning to RRIRDRPPRLPRPRPRPSHHPRP, the “shrunken log2 fold change” value is -0.344.

For the sequence RRIRFRPPRLPRPRPRPNTLPRP, the “shrunken log2 fold change” value was -0.239.

As for RRIRHRPPRLPRPRPRPEGIPRP, the “shrunken log2 fold change” value was determined as 0.0992.

With RRIRDRPPRLPRPRPRPEKSPRP, the “shrunken log2 fold change” value is -0.00264.

Regarding RRIRNRPPRLPRPRPRPTFTPRP, the “shrunken log2 fold change” value is -0.245.

Turning to RRIRCRPPRLPRPRPRPRWSPRP, the “shrunken log2 fold change” value turned out to be 0.422.

RRIRLRPPRLPRPRPRPTCRPRP: the “shrunken log2 fold change” value turned out to be 0.187.

Regarding RRIRARPPRLPRPRPRPKFCPRP, the “shrunken log2 fold change” value is 0.22.

Turning to RRIRSRPPRLPRPRPRPCWWPRP, the “shrunken log2 fold change” value was 0.159.

Take RRIRGRPPRLPRPRPRPEGFPRP: the “shrunken log2 fold change” value worked out at 1.56.

RRIRRRPPRLPRPRPRPGKLPRP: the “shrunken log2 fold change” value was determined as 0.0788.

For the sequence RRIRVRPPRLPRPRPRPYHVPRP, the “shrunken log2 fold change” value is -0.055.

In the case of RRIRWRPPRLPRPRPRPGMTPRP, the “shrunken log2 fold change” value was determined as 0.167.

As for RRIRARPPRLPRPRPRPAQRPRP, the “shrunken log2 fold change” value stood at 0.695.
